# Tests used:
# NF-kB p50 homodimer = NF-kB p50 homodimer (UniProt P19838); conditions: quoted in comparison with XBY-6
# [1] = molecular target: NF-kB p65 (RelA) homodimer (UniProt Q04206); experiment: EMSA; conditions: 1:1 stoichiometry of p65 to the 22-mer site
# Sequence of NF-kB p65 (RelA) homodimer (Q04206 whole entry): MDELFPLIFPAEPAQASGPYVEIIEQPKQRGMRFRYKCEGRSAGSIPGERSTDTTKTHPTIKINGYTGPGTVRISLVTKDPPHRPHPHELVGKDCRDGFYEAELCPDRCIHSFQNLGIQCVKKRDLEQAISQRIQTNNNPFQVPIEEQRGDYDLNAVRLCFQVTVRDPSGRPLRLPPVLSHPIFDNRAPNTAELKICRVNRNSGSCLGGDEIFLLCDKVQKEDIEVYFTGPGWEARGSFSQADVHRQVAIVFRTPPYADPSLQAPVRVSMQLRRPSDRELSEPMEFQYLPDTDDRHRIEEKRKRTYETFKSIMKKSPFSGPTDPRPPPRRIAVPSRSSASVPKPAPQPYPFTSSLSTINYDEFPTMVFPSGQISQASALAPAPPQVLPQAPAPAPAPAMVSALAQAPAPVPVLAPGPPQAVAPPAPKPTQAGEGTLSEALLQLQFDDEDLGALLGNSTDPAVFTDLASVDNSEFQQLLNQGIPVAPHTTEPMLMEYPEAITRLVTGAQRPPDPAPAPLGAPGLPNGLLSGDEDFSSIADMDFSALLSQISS
# Sequence of NF-kB p50 homodimer (P19838 1-433): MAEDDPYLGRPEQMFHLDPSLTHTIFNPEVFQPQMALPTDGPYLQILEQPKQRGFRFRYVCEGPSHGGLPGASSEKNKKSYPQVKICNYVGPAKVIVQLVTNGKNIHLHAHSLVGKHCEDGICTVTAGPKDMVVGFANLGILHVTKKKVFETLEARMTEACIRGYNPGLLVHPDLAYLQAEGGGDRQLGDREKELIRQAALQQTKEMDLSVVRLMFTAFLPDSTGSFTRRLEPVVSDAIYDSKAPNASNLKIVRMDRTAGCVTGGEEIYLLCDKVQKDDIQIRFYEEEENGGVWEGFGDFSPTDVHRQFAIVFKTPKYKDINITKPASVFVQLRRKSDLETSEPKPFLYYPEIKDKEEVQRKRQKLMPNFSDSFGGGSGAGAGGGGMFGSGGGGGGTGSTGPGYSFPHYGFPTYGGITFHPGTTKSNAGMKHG
substance,measurement,setting,value
IgkB promoter element 22-mer,Kd,NF-kB p50 homodimer,4 nM
same,Kd,[1],4 nM

# Source: US20060121489
